Data published in patent US20200024330A1.

Columns and labels:
[1] = biological target: WT JR-FL gp120 (HIV-1 (isolate JR-FL)); experiment: ELISA on coated gp120; EC50 by nonlinear regression
[2] = biological target: HIV-1 JR-CSF Env P313A (HIV-1 JR-CSF) (UniProt P20871); experiment: cell-based or functional assay
[3] = biological target: HIV-1 JR-CSF Env I307A (HIV-1 JR-CSF) (UniProt P20871); experiment: cell-based or functional assay
[4] = biological target: HIV-1 JR-CSF Env T297A (HIV-1 JR-CSF) (UniProt P20871); experiment: cell-based or functional assay
[5] = biological target: HIV-1 JR-CSF Env S334A (HIV-1 isolate JR-CSF) (UniProt P20871); experiment: cell-based or functional assay
[6] = biological target: Env of the clade F HIV-1 pseudoviruses of the cross-clade 162-pseudovirus panel (n = 15); experiment: cell-based or functional assay
[7] = biological target: Env of the clade C HIV-1 pseudoviruses of the cross-clade 162-pseudovirus panel (n = 27); experiment: cell-based or functional assay
[8] = biological target: Env of the clade A HIV-1 pseudoviruses of the cross-clade 162-pseudovirus panel (n = 26); experiment: cell-based or functional assay
[9] = biological target: Env of the clade D HIV-1 pseudoviruses of the cross-clade 162-pseudovirus panel (n = 25); experiment: cell-based or functional assay
[10] = biological target: HIV-1 JR-CSF Env N339A (HIV-1 isolate JR-CSF) (UniProt P20871); experiment: cell-based or functional assay
[11] = biological target: HIV-1 JR-CSF Env E321aA (HIV-1 isolate JR-CSF) (UniProt P20871); experiment: cell-based or functional assay
[12] = biological target: HIV-1 JR-CSF Env F317A (HIV-1 isolate JR-CSF) (UniProt P20871); experiment: cell-based or functional assay
[13] = biological target: HIV-1 JR-CSF Env I420A (HIV-1 (isolate JR-CSF)) (UniProt P20871); experiment: cell-based or functional assay
[14] = biological target: HIV-1 JR-CSF Env D325A (HIV-1 isolate JR-CSF) (UniProt P20871); experiment: cell-based or functional assay
[15] = biological target: HIV-1 JR-CSF Env T320A (HIV-1 isolate JR-CSF) (UniProt P20871); experiment: cell-based or functional assay
[16] = biological target: HIV-1 Env of isolate JR-CSF (HIV-1) (UniProt P20871); experiment: cell-based or functional assay
[17] = biological target: HIV-1 JR-CSF Env N295A (HIV-1 JR-CSF) (UniProt P20871); experiment: cell-based or functional assay
[18] = biological target: HIV-1 Env of isolate MGRM-C-026 (HIV-1); experiment: cell-based or functional assay
[19] = biological target: HIV-1 JR-CSF Env R350A (HIV-1 isolate JR-CSF) (UniProt P20871); experiment: cell-based or functional assay
[20] = biological target: HIV-1 JR-CSF Env K343A (HIV-1 isolate JR-CSF) (UniProt P20871); experiment: cell-based or functional assay
[21] = biological target: HIV-1 JR-CSF Env R315A (HIV-1 isolate JR-CSF) (UniProt P20871); experiment: cell-based or functional assay
[22] = biological target: HIV-1 JR-CSF Env F210A (HIV-1 JR-CSF) (UniProt P20871); experiment: cell-based or functional assay
[23] = biological target: HIV-1 JR-CSF Env T341A (HIV-1 isolate JR-CSF) (UniProt P20871); experiment: cell-based or functional assay
[24] = biological target: HIV-1 JR-CSF Env I309A (HIV-1 JR-CSF) (UniProt P20871); experiment: cell-based or functional assay
[25] = biological target: HIV-1 JR-CSF Env S199A (HIV-1 JR-CSF) (UniProt P20871); experiment: cell-based or functional assay
[26] = biological target: HIV-1 JR-CSF Env N262A (HIV-1 JR-CSF) (UniProt P20871); experiment: cell-based or functional assay
[27] = biological target: HIV-1 JR-CSF Env R419A (HIV-1 (isolate JR-CSF)) (UniProt P20871); experiment: cell-based or functional assay
[28] = biological target: HIV-1 JR-CSF Env N411A (HIV-1 (isolate JR-CSF)) (UniProt P20871); experiment: cell-based or functional assay
[29] = biological target: HIV-1 JR-CSF Env T303A (HIV-1 JR-CSF) (UniProt P20871); experiment: cell-based or functional assay
[30] = biological target: HIV-1 JR-CSF Env N276A (HIV-1 JR-CSF) (UniProt P20871); experiment: cell-based or functional assay
[31] = biological target: HIV-1 JR-CSF Env T394A (HIV-1 (isolate JR-CSF)) (UniProt P20871); experiment: cell-based or functional assay
[32] = biological target: HIV-1 JR-CSF Env H330A (HIV-1 isolate JR-CSF) (UniProt P20871); experiment: cell-based or functional assay
[33] = biological target: HIV-1 JR-CSF Env T388A (HIV-1 (isolate JR-CSF)) (UniProt P20871); experiment: cell-based or functional assay
[34] = biological target: Env of the clade G HIV-1 pseudoviruses of the cross-clade 162-pseudovirus panel (n = 15); experiment: cell-based or functional assay
[35] = biological target: HIV-1 JR-CSF Env N301A (HIV-1 JR-CSF) (UniProt P20871); experiment: cell-based or functional assay
[36] = biological target: HIV-1 JR-CSF Env N386A (HIV-1 isolate JR-CSF) (UniProt P20871); experiment: cell-based or functional assay
[37] = biological target: HIV-1 Env of isolate 92TH021 (HIV-1); experiment: cell-based or functional assay
[38] = biological target: HIV-1 JR-CSF Env S393A (HIV-1 (isolate JR-CSF)) (UniProt P20871); experiment: cell-based or functional assay

B1: PGT-131 (antibody, V domains shown)
VH: QVQLQESGPGLVKPSETLSLTCTVSGDSINTGHHYWGWVRQVPGKGPEWIAHIHYNTAVLHNPALKSRVTISIFTLKNLITLSLSNVTAADTAVYFCVRSGGDILYYIEWQKPHWFYPWGPGILVTVSS
VL: QSALTQPPSASGSLGQSLTISCSGTGSDIGSWNFVSWYQQFPGRAPNLIIFEVNRRRSGVPDRFSGSKSGNTASLTVSGLRSEDEAEYFCSSLSGRWDIVFGGGTKVTVL
EC50 [1]: 0.4 µg/mL | Fold IC50 increase relative to wild-type [2]: 0.52 fold | Fold IC50 increase relative to wild-type [3]: > 170 fold | Fold IC50 increase relative to wild-type [4]: 1.2 fold | Fold IC50 increase relative to wild-type [5]: 0.4 fold | Median IC50 against viruses neutralized with an IC50 <50 µg/ml [6]: 0.55 µg/mL | Median IC50 against viruses neutralized with an IC50 <50 µg/ml [7]: 0.78 µg/mL | Median IC50 against viruses neutralized with an IC50 <50 µg/ml [8]: 0.09 µg/mL | Median IC50 against viruses neutralized with an IC50 <50 µg/ml [9]: 0.85 µg/mL | Fold IC50 increase relative to wild-type [10]: 1 fold | Fold IC50 increase relative to wild-type [11]: 1.8 fold | Fold IC50 increase relative to wild-type [12]: 96 fold | Fold IC50 increase relative to wild-type [13]: 153 fold | Fold IC50 increase relative to wild-type [14]: > 170 fold | Fold IC50 increase relative to wild-type [15]: 4.5 fold | Primary Neutralization Index (B cell culture well 5136 H1) [16]: 6.2 | Fold IC50 increase relative to wild-type [17]: 2.1 fold | Primary Neutralization Index (B cell culture well 5136 H1) [18]: 1.2 | Fold IC50 increase relative to wild-type [19]: 1.3 fold | Fold IC50 increase relative to wild-type [20]: 1.1 fold | Fold IC50 increase relative to wild-type [21]: 0.7 fold | Fold IC50 increase relative to wild-type [22]: 1 fold | Fold IC50 increase relative to wild-type [23]: 1.3 fold | Fold IC50 increase relative to wild-type [24]: 8.8 fold | Fold IC50 increase relative to wild-type [25]: 1.6 fold | Fold IC50 increase relative to wild-type [26]: 0.4 fold | Fold IC50 increase relative to wild-type [27]: 1.7 fold | Fold IC50 increase relative to wild-type [28]: 0.6 fold | Fold IC50 increase relative to wild-type [29]: > 170 fold | Fold IC50 increase relative to wild-type [30]: 0.8 fold | Fold IC50 increase relative to wild-type [31]: 0.9 fold | Fold IC50 increase relative to wild-type [32]: 0.5 fold | Fold IC50 increase relative to wild-type [33]: 0.6 fold | Median IC50 against viruses neutralized with an IC50 <50 µg/ml [34]: 3.54 µg/mL | Fold IC50 increase relative to wild-type [35]: > 170 fold | Fold IC50 increase relative to wild-type [36]: 1.1 fold | Primary Neutralization Index (B cell culture well 5136 H1) [37]: 354 | Fold IC50 increase relative to wild-type [38]: 1.1 fold
